Results taken from PMC2824011.

Substrate: O=c1ccc2nc3ccc(O[C@H]4O[C@H](CO)[C@@H](O)[C@H](O)[C@@H]4O)cc3oc-2c1
Assay: continuous fluorometric kinetic assay of purified enzyme
Assay type: biochemical, Drosophila melanogaster

B1: Golgi α-mannosidase II (dGMII) (Drosophila melanogaster) (protein)
chain: DDPIRPPLKVARSPRPGQCQDVVQDVPNVDVQMLELYDRMSFKDIDGGVWKQGWNIKYDPLKYNAHHKLKVFVVPHSHNDPGWIQTFEEYYQHDTKHILSNALRHLHDNPEMKFIWAEISYFARFYHDLGENKKLQMKSIVKNGQLEFVTGGWVMPDEANSHWRNVLLQLTEGQTWLKQFMNVTPTASWAIDPFGHSPTMPYILQKSGFKNMLIQRTHYSVKKELAQQRQLEFLWRQIWDNKGDTALFTHMMPFYSYDIPHTCGPDPKVCCQFDFKRMGSFGLSCPWKVPPRTISDQNVAARSDLLVDQWKKKAELYRTNVLLIPLGDDFRFKQNTEWDVQRVNYERLFEHINSQAHFNVQAQFGTLQEYFDAVHQAERAGQAEFPTLSGDFFTYADRSDNYWSGYYTSRPYHKRMDRVLMHYVRAAEMLSAWHSWDGMARIEERLEQARRELSLFQHHDGITGTAKTHVVVDYEQRMQEALKACQMVMQQSVYRLLTKPSIYSPDFSFSYFTLDDSRWPGSGVEDSRTTIILGEDILPSKHVVMHNTLPHWREQLVDFYVSSPFVSVTDLANNPVEAQVSPVWSWHHDTLTKTIHPQGSTTKYRIIFKARVPPMGLATYVLTISDSKPEHTSYASNLLLRKNPTSLPLGQYPEDVKFGDPREISLRVGNGPTLAFSEQGLLKSIQLTQDSPHVPVHFKFLKYGVRSHGDRSGAYLFLPNGPASPVELGQPVVLVTKGKLESSVSVGLPSVVHQTIMRGGAPEIRNLVDIGSLDNTEIVMRLETHIDSGDIFYTDLNGLQFIKRRRLDKLPLQANYYPIPSGMFIEDANTRLTLLTGQPLGGSSLASGELEIMQDRRLASDDERGLGQGVLDNKPVLHIYRLVLEKVNNCVRPSELHPAGYLTSAAHKASQSLLDPLDKFIFAENEWIGAQGQFGGDHPSAREDLDVSVMRRLTKSSAKTQRVGYVLHRTNLMQCGTPEEHTQKLDVCHLLPNVARCERTTLTFLQNLEHLDGMVAPEVCPMETAAYVSSHSS
Km: 200 (±73) μM
